Data from patent US20110158985A1.

Molecular target: F protein of RSV (Long strain) (RSV (Long strain)) (UniProt P12568)
Assay: cell-based or functional assay

Chain of F protein of RSV (Long strain) (RSV (Long strain)) (P12568 26-574): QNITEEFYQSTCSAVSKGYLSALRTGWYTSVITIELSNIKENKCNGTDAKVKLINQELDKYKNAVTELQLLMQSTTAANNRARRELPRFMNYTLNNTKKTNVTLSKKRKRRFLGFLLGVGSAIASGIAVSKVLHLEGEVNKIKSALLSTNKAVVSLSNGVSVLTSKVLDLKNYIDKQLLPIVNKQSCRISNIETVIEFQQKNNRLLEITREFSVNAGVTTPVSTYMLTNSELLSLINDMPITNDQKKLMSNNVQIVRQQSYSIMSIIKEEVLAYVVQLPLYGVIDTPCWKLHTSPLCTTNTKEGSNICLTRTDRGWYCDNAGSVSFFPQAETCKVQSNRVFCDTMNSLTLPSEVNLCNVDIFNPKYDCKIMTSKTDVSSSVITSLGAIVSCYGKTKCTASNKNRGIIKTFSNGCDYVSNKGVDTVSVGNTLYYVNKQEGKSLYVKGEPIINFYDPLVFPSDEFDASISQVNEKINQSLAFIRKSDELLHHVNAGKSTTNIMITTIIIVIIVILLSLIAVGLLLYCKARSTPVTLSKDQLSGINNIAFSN
Chain of palivizumab F(ab')2 (VH): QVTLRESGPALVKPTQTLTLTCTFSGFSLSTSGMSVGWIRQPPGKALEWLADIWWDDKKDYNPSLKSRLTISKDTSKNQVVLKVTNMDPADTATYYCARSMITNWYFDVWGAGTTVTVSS
Chain of palivizumab F(ab')2 (VL): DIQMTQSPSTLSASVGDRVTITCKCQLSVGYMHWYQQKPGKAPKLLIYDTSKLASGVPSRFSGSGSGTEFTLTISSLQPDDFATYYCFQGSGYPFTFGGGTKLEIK

palivizumab F(ab')2 gave a Microneutralization IC50 of 1.4 nM.
